In one series the target is Asp85 (UniProt position 98, WARYADWLFTT). The settings on record: cited from earlier work.
A further series relates to Asp97. Particulars: cited from earlier work.
Series [1] has as its target actinorhodopsin from Rhodoluna lacicola strain MWH-Ta8 (Rhodoluna lacicola strain MWH-Ta8). Nature of the series: cryo-EM structure; single particle analysis, 2D classification, 4 Å projection structure from 53,376 particles; protein purified in 0.25% (w/v) Cymal-5, 2.5 mg/mL.
The target is the same in series [2]. Nature of the series: SEC; Superdex 200 Increase 10/300 GL; 20 mM BTP-HCl pH 7.5, 150 mM NaCl, 0.25% (w/v) Cymal-5; sample at about 0.75-1.5 mg/mL; column calibrated with molecular weight markers.
A further series addresses Asp92 (position 92, …). As to the kind of experiment: UV-vis. The settings on record: not stated (pH adjusted at room temperature), 150 mM NaCl plus 100 mM acetate buffer, with residual HEPES-NaOH from a 5 mM stock diluted 5-fold, Detergent-solubilised, retinal-bound oligomeric RlActR at 0.2 mg/mL, whether the sample was light- or dark-adapted is not stated.

As for “Bacteriorhodopsin (BR) (Halobacterium salinarum)”, the pKa entry with Asp85 is recorded as “∼2.6”. “Green-light absorbing proteorhodopsin (GPR) (uncultured marine gamma-proteobacterium)”: the pKa result with Asp97 is on record as “∼7.5”. “actinorhodopsin from Rhodoluna lacicola strain MWH-Ta8 (natural protein)”: the stoichiometry N in series [1] and in series [2] was 5 in each case.

B1: Actinorhodopsin RlActR (Rhodoluna lacicola (strain MWH-Ta8)) (protein)
chain: MNTLSNALDNGQFNLVYNILSLGIASMLFTAIFLFVARERVLPRYRIAVMVSATVTAIAAYHYFRMFDNFSHAFAGAENNPDAYNVGYRYVDWLLTVPLLLVELVAVLALAKAAQSSILNRLVPAAAAMIVLGYPGDAKLDIWGIAPSVWGLLSTIPFLYILYVLFIELGKSLSRQSEAVQKKVKILRLLLIATWGVYPITFILAMGTPPGAPFNASEFVAREVGYSIADILAKCLFGLIIYSIARIKSAEDDKEFAKAEFKDALEGHHHHH
Regarding B1, the pKa with Asp92 (position 92, …) is given as 5.6.

For orientation: pKa means the pH at which an ionisable group is half protonated. For orientation: stoichiometry N means the number of molecules, sites or subunits per partner or assembly.

(Values after paper PMC11790970.)
